Test results: patent publication US20230265151A1, “GIP/GLP1 CO-AGONIST COMPOUNDS” (priority 2020, published 2023)
Where a chain is given by its changes, count along the chain named.

T1: human GIP receptor (human, UniProt P48546 22-466)
T1 sequence (looked up): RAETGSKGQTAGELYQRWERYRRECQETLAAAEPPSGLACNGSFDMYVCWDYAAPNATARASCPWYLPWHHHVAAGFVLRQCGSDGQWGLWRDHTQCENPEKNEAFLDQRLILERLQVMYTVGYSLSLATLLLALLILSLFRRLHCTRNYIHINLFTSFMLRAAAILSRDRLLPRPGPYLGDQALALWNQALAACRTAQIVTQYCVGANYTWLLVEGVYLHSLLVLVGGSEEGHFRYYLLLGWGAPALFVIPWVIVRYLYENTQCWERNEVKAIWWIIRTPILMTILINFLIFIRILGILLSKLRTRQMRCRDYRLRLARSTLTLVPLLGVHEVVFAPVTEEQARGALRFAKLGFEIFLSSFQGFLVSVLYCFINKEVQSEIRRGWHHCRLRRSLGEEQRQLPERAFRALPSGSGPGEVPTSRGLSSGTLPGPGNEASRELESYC

B1: Y-Aib-EGT-αMeF(2F)-TSD-4Pal-Ac5c-I-αMeL-LD-Orn-K((2-[2-(2-Amino-ethoxy)-ethoxy]-acetyl)2-(γ-Glu)-CO-(CH2)12-CO2H)AQ-Aib-EFI-(D-Glu)-αMeY-LIEGGK((2-[2-(2-Amino-e … (peptide)
peptide: YXEGTXTSDXXIXLDXKAQXEFIXXLIEGGKSSGAPPPS
modifications: Aib2, αMeF(2F)6, 4Pal10, Ac5c11, αMeL13, Orn16, Aib20, D-Glu24, αMeY25; acylated K17, K31 (groups as in name); C-terminal amide
B2: Y-Aib-EGT-αMeF(2F)-TSD-4Pal-SI-αMeL-LD-Orn-IAQ-Aib-EFI-(D-Glu)-αMeY-LIK((2-[2-(2-Amino-ethoxy)-ethoxy]-acetyl)2-(γ-Glu)-(4-(4-tert-butylphenyl)butanoyl))GGPSSGA … (peptide)
peptide: YXEGTXTSDXSIXLDXIAQXEFIXXLIKGGPSSGAPPPSK
modifications: Aib2, αMeF(2F)6, 4Pal10, αMeL13, Orn16, Aib20, D-Glu24, αMeY25; acylated K28, K40 (groups as in name); C-terminal amide
B3: Y-Aib-EGT-αMeF(2F)-TSD-4Pal-αMeS-I-αMeL-LD-Orn-IAQ-Aib-K((2-[2-(2-Amino-ethoxy)-ethoxy]-acetyl)2-(γ-Glu)-CO-(CH2)12-CO2H)FIK((2-[2-(2-Amino-ethoxy)-ethoxy]-acet … (peptide)
peptide: B1 peptide with K17I, E21K, X24K, K31P
modifications: Aib2, αMeF(2F)6, 4Pal10, αMeS11, αMeL13, Orn16, Aib20, αMeY25; acylated K21, K24 (groups as in name); C-terminal amide
B4: Y-Aib-EGT-αMeF(2F)-TSD-4Pal-αMeS-I-αMeL-LD-Orn-IAQ-Aib-EFIK((2-[2-(2-Amino-ethoxy)-ethoxy]-acetyl)2-(γ-Glu)-CO-(CH2)12-CO2H)-αMeY-LIK((2-[2-(2-Amino-ethoxy)-eth … (peptide)
peptide: B1 peptide with K17I, X24K, E28K, K31P
modifications: Aib2, αMeF(2F)6, 4Pal10, αMeS11, αMeL13, Orn16, Aib20, αMeY25; acylated K24, K28 (groups as in name); C-terminal amide
B5: Y-Aib-EGT-αMeF(2F)-TSD-4Pal-αMeS-I-αMeL-LD-Orn-IAQ-Aib-K((2-[2-(2-Amino-ethoxy)-ethoxy]-acetyl)2-(γ-Glu)-CO-(CH2)12-CO2H)FI-(D-Glu)-αMeY-LIK((2-[2-(2-Amino-etho … (peptide)
peptide: B1 peptide with K17I, E21K, E28K, K31P
modifications: Aib2, αMeF(2F)6, 4Pal10, αMeS11, αMeL13, Orn16, Aib20, D-Glu24, αMeY25; acylated K21, K28 (groups as in name); C-terminal amide

Key:
Assay in all cases: cell-based or functional assay
human GIP receptor = biological target: T1, human GIP receptor
human glucagon receptor = human glucagon receptor (human, UniProt P47871 26-477)
human GLP-1 receptor = human GLP-1 receptor (human, UniProt P43220 24-463)

| Binder | cAMP EC50 (1.0% HSA) (human GIP receptor) [nM] | cAMP Emax (1.0% HSA) (human GIP receptor) [%] | cAMP EC50 (1.0% HSA) (human glucagon receptor) [nM] | cAMP EC50 (1.0% HSA) (human GLP-1 receptor) [nM] | cAMP Emax (1.0% HSA) (human GLP-1 receptor) [%] |
| --- | --- | --- | --- | --- | --- |
| B1 | 2.16 | 64.5 | > 9950 | 94.2 | 99 |
| B2 | 0.242 | 77.6 | > 9950 | 3.03 | 98.1 |
| B3 | 0.925 | 91.3 | > 9950 | 14.8 | 107 |
| B4 | 5.31 | 63.4 | > 9950 | 32.3 | 117 |
| B5 | 7.84 | 62.7 | > 9950 | 87.8 | 118 |
